Target: T1, SND1 recombinant protein (Origene, TP300059) (human, UniProt Q7KZF4 1-910, site-specific cysteine labeling with the RED-MALEIMIDE 2nd Generation kit (fluorescent dye))
T1 chain: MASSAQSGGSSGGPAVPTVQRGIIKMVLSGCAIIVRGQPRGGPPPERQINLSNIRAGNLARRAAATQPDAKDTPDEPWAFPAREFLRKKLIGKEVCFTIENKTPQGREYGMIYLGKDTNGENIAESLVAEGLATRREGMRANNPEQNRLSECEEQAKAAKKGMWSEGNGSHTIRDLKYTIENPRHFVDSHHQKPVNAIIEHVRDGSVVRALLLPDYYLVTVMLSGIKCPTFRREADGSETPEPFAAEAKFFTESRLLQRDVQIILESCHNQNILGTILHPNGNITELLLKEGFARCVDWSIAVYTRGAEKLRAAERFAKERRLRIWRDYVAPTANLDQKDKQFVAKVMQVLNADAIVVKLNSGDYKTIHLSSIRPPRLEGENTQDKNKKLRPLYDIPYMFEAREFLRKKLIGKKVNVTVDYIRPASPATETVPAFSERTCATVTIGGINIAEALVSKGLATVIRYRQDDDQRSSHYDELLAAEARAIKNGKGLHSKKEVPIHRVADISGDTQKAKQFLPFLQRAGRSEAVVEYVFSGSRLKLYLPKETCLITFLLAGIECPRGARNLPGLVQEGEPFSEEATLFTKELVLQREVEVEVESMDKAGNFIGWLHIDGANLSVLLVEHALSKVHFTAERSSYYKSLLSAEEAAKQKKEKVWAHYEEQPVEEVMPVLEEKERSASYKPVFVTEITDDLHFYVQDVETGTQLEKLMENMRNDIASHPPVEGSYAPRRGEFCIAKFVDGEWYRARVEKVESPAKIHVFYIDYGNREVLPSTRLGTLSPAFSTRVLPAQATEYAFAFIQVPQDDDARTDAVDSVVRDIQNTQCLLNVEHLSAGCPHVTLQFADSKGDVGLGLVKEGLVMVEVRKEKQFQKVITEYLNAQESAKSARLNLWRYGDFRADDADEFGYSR
Assay: MST

B1: NSP9 recombinant protein (Abcam, ab289608) (natural protein)
chain: NNELSPVALRQMSCAAGTTQTACTDDNALAYYNTTKGGRFVLALLSDLQDLKWARFPKSDGTGTIYTELEPPCRFVTDTPKGPKVKYLYFIKGLNNLNRGMVLGSLAATVRLQ
  Kd: 8.8 µM

— paper PMC10617981 (2023)
